Assay results reported in patent publication EP4803547A1 (Biontech (Zhuhai) Pharmaceuticals R&D Co., Ltd, dated 2026).
Where a chain is given by its changes, count along the chain named.

Assays:
human CD40 on cells = target: T1, human CD40 on cells (human, UniProt P25942 21-277); assay: flow cytometry on CHO-hCD40 cells, anti-human IgG-Fc PE
T1 construct: whole, on cells; One molecule is used for human CD40 on the three cell types; also called CHO-hCD40; CHO-S cells overexpressing human CD40

human PD-1 on cells = target: T2, human PD-1 on cells (human, UniProt Q15116 25-288); assay: flow cytometry on CHO-hPD-1 cells, anti-human IgG-Fc PE
T2 construct: whole, on cells; also called CHO-hPD-1; CHO-S cells overexpressing human PD-1

human PD-1 protein = human PD-1 protein (human, UniProt Q15116 25-167, limits assumed); assay: BLI (ForteBio), antibody on AHQ sensor, 100 nM antigen, 1:1 model
human CD40 protein = human CD40 protein (human, UniProt P25942 21-193, limits assumed); assay: as above

Measured: binding result

human PD-1 protein, sequence (Q15116 25-167 limits assumed): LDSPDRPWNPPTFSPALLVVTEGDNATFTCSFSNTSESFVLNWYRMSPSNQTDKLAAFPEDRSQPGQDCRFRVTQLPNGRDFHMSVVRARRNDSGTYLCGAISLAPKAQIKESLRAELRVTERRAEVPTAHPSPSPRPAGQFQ
T2 sequence (Q15116 25-288): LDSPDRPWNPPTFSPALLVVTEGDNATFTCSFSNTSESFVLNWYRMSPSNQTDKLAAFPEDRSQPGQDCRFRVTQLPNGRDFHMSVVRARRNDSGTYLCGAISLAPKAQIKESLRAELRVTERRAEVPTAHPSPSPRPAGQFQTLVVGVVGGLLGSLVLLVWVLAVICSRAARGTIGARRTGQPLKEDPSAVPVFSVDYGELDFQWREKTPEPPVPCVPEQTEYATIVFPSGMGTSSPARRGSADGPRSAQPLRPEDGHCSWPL
T1 sequence (P25942 21-277): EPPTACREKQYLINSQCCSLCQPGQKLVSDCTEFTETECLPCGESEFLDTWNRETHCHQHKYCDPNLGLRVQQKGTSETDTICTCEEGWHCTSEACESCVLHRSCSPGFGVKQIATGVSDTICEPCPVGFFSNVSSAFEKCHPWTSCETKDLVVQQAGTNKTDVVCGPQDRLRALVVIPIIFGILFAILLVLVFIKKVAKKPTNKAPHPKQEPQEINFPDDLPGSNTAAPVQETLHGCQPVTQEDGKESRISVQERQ
human CD40 protein, sequence (P25942 21-193 limits assumed): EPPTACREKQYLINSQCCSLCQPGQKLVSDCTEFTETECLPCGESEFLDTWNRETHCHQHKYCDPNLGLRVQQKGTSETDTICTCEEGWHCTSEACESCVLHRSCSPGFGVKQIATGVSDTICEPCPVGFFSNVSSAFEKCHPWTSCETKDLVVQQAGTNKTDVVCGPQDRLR

B1: PD1(pembro)xCD40(non-blocker, ADI-55164) (bispecific antibody, human IgG1, kappa)
heavy: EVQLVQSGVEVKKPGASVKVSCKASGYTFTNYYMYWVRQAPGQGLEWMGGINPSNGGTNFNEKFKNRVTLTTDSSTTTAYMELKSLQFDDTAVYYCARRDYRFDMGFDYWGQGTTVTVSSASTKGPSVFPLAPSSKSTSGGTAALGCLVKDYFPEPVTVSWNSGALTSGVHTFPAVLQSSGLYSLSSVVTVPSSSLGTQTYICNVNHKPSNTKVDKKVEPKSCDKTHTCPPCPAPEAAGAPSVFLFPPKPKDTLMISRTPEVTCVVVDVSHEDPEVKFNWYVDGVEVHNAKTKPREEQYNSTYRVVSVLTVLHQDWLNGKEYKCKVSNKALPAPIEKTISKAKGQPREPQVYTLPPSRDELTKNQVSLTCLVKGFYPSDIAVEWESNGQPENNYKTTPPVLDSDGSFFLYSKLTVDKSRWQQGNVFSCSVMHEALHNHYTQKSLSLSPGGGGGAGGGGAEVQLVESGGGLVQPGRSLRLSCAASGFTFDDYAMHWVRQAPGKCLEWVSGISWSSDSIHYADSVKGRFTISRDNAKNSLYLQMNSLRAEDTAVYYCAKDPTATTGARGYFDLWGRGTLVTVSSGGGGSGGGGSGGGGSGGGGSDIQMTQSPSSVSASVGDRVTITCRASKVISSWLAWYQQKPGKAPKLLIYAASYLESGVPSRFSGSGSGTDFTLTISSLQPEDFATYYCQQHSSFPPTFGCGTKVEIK
light: EIVLTQSPATLSLSPGERATLSCRASKGVSTSGYSYLHWYQQKPGQAPRLLIYLASYLESGVPARFSGSGSGTDFTLTISSLEPEDFAVYYCQHSRDLPLTFGGGTKVEIKRTVAAPSVFIFPPSDEQLKSGTASVVCLLNNFYPREAKVQWKVDNALQSGNSQESVTEQDSKDSTYSLSSTLTLSKADYEKHKVYACEVTHQGLSSPVTKSFNRGEC
notes: also called BsAb-3; PD1(pembro)xCD40(ADI-55164)
binds: human CD40 on cells | human PD-1 on cells | human PD-1 protein | human CD40 protein

B2: PD1xCD40(blocker, ADI-55147) (bispecific antibody, human IgG1, kappa)
heavy: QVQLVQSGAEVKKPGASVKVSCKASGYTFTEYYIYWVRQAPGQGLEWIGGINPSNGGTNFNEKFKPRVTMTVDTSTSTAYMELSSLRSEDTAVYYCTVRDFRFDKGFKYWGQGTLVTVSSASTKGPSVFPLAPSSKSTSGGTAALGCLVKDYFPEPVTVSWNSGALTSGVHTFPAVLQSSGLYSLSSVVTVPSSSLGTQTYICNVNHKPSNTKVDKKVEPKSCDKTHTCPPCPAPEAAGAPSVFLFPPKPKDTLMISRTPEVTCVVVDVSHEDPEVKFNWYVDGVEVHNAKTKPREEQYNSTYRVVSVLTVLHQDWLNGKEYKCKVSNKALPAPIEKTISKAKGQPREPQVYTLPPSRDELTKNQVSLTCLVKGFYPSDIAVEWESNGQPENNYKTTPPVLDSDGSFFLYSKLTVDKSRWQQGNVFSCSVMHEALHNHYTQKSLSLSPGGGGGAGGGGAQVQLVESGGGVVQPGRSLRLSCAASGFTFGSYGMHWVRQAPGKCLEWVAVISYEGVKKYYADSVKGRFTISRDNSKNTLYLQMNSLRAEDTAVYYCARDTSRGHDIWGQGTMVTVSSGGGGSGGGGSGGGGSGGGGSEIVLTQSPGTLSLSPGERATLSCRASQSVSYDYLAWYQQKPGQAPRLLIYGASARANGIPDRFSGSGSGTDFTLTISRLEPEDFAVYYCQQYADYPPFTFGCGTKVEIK
light: B1 light with G28S, Y34L, S35N, L37V, Q42R, A55G, E59D, H94Q, R96W, D97E
notes: also called BsAb-2
binds: human CD40 on cells | human PD-1 on cells | human PD-1 protein | human CD40 protein
